Source: patent publication US20220403013A1

Biological target: malondialdehyde-modified LDL (MDA-LDL), human (human) (UniProt P04114)
Experiment: ELISA, MDA-LDL immobilised on plate, antibody titrated (0.01-50 µg/ml), HRP anti-human IgG detection

## orticumab (antibody)
  Kd: 8 nM
